Laboratory results reported in PMC9734383 (Nature Communications, 2022).

Legend:
H3 HA = H3 HA (Influenza A virus H3N2, probably A/Hong …, UniProt Q91MA7, strain); assay: SEC; conditions: both partners purified
[1] = biological target: H3 HA (recombinant HA of the panel) (Influenza A virus H3N2, probably A/Hong …, UniProt Q91MA7, biotinylated (in the BLI assay)); assay: BLI; conditions: both partners purified

Row | Binder | binding result (H3 HA) | binding result [1]
1 | PN-SIA28 Fab (Fab, V domains shown) VH: QVQLVESGGGVVQPGRSLRLSCAASGFPFSSYGMHWVRQAPGKGLEWVAGVSYDGSYKYYADSVKGRFTISRDSSKSTLYLQMNSLRPEDTAVYYCARPSAIFGIYIILNGLDVWGQGTTVTVSS VL: EIVLTQSPSSVSASVGDRVTITCRATQGISSWLAWYQQKPGKPPKLLIFGASSLQSGVPSRFSGSGSGTDFTLTISSLQPEDFATYFCQQAHSFPLTFGGGTKVEIK | binds | 
2 | PN-SIA28 Fab (Fab, V domains shown, also called PN-SIA28 Fab fragment) VH: QVQLVESGGGVVQPGRSLRLSCAASGFPFSSYGMHWVRQAPGKGLEWVAGVSYDGSYKYYADSVKGRFTISRDSSKSTLYLQMNSLRPEDTAVYYCARPSAIFGIYIILNGLDVWGQGTTVTVSS VL: EIVLTQSPSSVSASVGDRVTITCRATQGISSWLAWYQQKPGKPPKLLIFGASSLQSGVPSRFSGSGSGTDFTLTISSLQPEDFATYFCQQAHSFPLTFGGGTKVEIK |  | binds
